Experimental data reported in patent US20240360204A1 (UNITED STATES GOVERNMENT AS REPRESENTED BY THE DEPARTMENT …, published 2024).

Assays:
[1] = target: T1, Oxygen stable streptolysin O (SLOwt) from Streptococcus pyogenes, recombinant, N-terminal His-tag, BirA … (Streptococcus pyogenes, UniProt Q5XE40 32-571, limits assumed, mono-biotinylated at the BirA (AviTag) site where biotinylated SLOwt was used (ELISA; one lane of the Western blot)); assay: cell-based or functional assay
[2] = target: T1, Oxygen stable streptolysin O (SLOwt) …; assay: ELISA

Binder	aCTX IC50 (M): anti-cytotoxicity on epithelial cells (A549) [1] [M]	aHU IC50 (M): neutralization of SLOwt-induced RBC hemolysis [1] [M]	aMBEP IC50 (M): anti-membrane binding on epithelial cells [1] [M]	aMBRBC IC50 (M): anti-membrane binding on RBCs [1] [M]	Kd [2] [nM]
hu55G4λ (antibody, human IgG1, V domains shown, also called 55G4 IgG antibody; 55LG4) VH: EVQLVQSGGGAVQPGRSLRLSCAVSGFTFSNFPMHWVRQAPGRGLEWVAVISHDETMIYYLDSVKGRFTISRDNSRNIVYLQMHSLRVEDTAVYYCARDTGVCSGGYCYTPRYFDQWGQGTLVTVSS VL: QPVLTQPPSVSVAPGKTADITCGGDNIGRKHVHWYRQRPSQAPLLVIYDDSDRPSGIPERLSGINSGNTATLTISGVEVGDEADYYCQVWDNDAEQWVFGGGTKLTV	5.1e-09	6.3e-09	2e-09	7.9e-09	0.046
hu55C11λ (antibody, human IgG1, V domains shown, also called 55c11 IgG antibody) VH: QVQLVESGGGLVKPGGSLRLSCAASGFTFSSHSMNWVRQTPGKGLEWVSSINTISTFIYYADSVKGRFTVSRDNARNSLFLQMNTLTADDTGVYYCARERGNRFCDGDCYSGTTFDYWGPGTLVTVSS VL: QPVLTQPPSVSVAPGRTSRITCEENNIGTKNVHWYQQKPGQAPLLVVHDDSDRPSGIPERFSGSNSGNTATLTISRVEAGDEADYYCQVWDSDNDRWLFGGGTRLTVLG	2.6e-09	4.4e-09	1.1e-09	1.3e-09	0.038
hu55L17κ (antibody, human IgG1, V domains shown, also called 55L17 IgG antibody) VH: QVQLVQSGAEVKKPGSSVKVSCRPPGGTLSNYAINWVRQAPGQGLEWMGGIVPMFSTTKYAQKFQGRLTLTADLSTITAHMELNRLTSEDTAVYYCARDLPAPYCSADLCYKVLDAFDVWGQGTLVTVSS VL: EIVLTQSPSSLSASVGDRVTITCQASQDISNYLNWYQQKPGKAPKLLIYKASSLESGVPSRFSGSGSGTEFTLTITRLQPDDFATYYCQQYEEYLRYSFGQGTKLEIK	1.1e-09	2.7e-09	–	–	0.078
